Patent US20220204583A1 (WISCONSIN ALUMNI RESEARCH FOUNDATION, published 2022)

B1: VLR-Fc-46 (Fc fusion)
chain: ACPSQCSCSGTTVDCSGKSLASVPTGIPTTTRWLHLHRNQLTKLEPGVFDSLTQLTYLNLGGNQLTALPVGVFDKLTNLKELKLYSNQLQALSEGLFDRLGKLQHLDLSKNQLKSIPHGAFDRLSSLTHAYLFGNPWDCECRDIMYLRNWVADHTSIVMRWDGKAVNDPDSAKCAGTNTPVRAVTEASTSPSKCPGYVAT
notes: Dimeric recombinant VLR-rabbit IgG-Fc fusion secreted from HEK293F cells; also called VLR 46; VLR46; not shown: rabbit IgG-Fc from vector pIRES-VLR-Fc, C-terminal of the VLR
B2: VLR-Fc-30 (Fc fusion)
chain: ACPSQCSCSGTTVDCSGKSLASVPTGIPTTTQILRLYRNQITKLEPGVFDSLTQLTYLNLGGNQLTALPVGVFDKLTNLKELKLYSNQLQALSEGLFDRLGKLQHLDLSKNQLKSIPHGAFDRLSSLTHAYLFGNPWDCECRDIMYLRNWVADHTSIVMRWDGKAVNDPDSAKCAGTNTPVRAVTEASTSPSKCPGYVAT
notes: Dimeric recombinant VLR-rabbit IgG-Fc fusion secreted from HEK293F cells; also called VLR 30; VLR30; not shown: rabbit IgG-Fc from vector pIRES-VLR-Fc, C-terminal of the VLR
B3: VLR-Fc-11 (Fc fusion)
chain: ACPSQCSCSGTEVRCESRSLASVPAGIPTTTRRLHLHRNQLTKLEPGVFDSLTQLTYLNLGGNQLTALPVGVFDKLTNLKELKLYSNQLQALSEGLFDRLGKLQHLDLSKNQLKSIPHGAFDRLSSLTHAYLFGNPWDCECRDIMYLRNWVADHTSIVMRWDGKAVNDPDSAKCAGTNTPVRAVTEASTSPSKCPGYVAT
notes: Dimeric recombinant VLR-rabbit IgG-Fc fusion secreted from HEK293F cells; also called VLR 11; VLR11; not shown: rabbit IgG-Fc from vector pIRES-VLR-Fc, C-terminal of the VLR

Experiments:
Experiment in all cases: competition of live bEnd.3 (MBEC) cell surface binding by excess recombinant receptor ectodomain
[1] = target: T1, recombinant low-density lipoprotein receptor ectodomain (UniProt P35951 22-790, limits assumed)
T1 construct: extracellular domain; Bought; also called rLDLR; LDLR
Experimental: (§1) Competition assay. 2 μM recombinant receptor ecto-domain proteins, rIR (R&D systems, 7544-MR), rLDLR (R&D systems, 2255-LD), and rTfR (Sino Biologics, 50741-M07H) were incubated with 200 nM VLR-Fc proteins in serum-free complete growth media for 30 minutes and then applied to serum-starved bEnd.3 cells in 96-well plates to allow for VLR-Fc binding to cell surface receptors. Plates were incubated at 4° C. for 2 hours. After extensive washing with ice cold PBS cells were fixed with 2% PFA, permeabilized, labeled with IRDye reagents, and analyzed as described above.

[2] = target: T2, recombinant insulin receptor ectodomain (UniProt P15208 28-946, limits assumed)
T2 construct: extracellular domain; Bought; The chain make-up (alpha/beta) is not described; also called rIR; IR
Experimental: as §1

[3] = target: T3, recombinant transferrin receptor ectodomain (UniProt Q62351 89-763, limits assumed)
T3 construct: extracellular domain; Bought; also called rTfR; TfR
Experimental: as §1

T1 sequence (P35951 22-790 limits assumed): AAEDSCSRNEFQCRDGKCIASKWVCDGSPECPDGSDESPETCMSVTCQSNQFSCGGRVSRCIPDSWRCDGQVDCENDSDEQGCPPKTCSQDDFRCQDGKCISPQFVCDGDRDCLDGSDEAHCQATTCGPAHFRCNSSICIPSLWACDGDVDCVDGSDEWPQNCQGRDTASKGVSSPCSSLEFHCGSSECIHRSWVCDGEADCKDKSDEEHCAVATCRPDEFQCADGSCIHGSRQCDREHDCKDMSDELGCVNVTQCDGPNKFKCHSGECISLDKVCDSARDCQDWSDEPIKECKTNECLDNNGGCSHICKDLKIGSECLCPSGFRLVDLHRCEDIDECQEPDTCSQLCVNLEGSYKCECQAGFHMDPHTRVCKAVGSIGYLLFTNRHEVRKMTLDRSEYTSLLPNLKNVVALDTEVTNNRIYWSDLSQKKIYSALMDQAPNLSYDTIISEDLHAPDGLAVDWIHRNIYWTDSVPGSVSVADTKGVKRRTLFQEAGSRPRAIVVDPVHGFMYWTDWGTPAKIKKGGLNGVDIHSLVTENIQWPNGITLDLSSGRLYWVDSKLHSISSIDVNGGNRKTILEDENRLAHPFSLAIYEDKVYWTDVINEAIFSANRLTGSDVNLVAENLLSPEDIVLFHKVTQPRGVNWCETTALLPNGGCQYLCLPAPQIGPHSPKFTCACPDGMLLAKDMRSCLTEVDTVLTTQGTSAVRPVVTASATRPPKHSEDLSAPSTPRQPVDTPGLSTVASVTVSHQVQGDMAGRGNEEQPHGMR
T3 sequence (Q62351 89-763 limits assumed): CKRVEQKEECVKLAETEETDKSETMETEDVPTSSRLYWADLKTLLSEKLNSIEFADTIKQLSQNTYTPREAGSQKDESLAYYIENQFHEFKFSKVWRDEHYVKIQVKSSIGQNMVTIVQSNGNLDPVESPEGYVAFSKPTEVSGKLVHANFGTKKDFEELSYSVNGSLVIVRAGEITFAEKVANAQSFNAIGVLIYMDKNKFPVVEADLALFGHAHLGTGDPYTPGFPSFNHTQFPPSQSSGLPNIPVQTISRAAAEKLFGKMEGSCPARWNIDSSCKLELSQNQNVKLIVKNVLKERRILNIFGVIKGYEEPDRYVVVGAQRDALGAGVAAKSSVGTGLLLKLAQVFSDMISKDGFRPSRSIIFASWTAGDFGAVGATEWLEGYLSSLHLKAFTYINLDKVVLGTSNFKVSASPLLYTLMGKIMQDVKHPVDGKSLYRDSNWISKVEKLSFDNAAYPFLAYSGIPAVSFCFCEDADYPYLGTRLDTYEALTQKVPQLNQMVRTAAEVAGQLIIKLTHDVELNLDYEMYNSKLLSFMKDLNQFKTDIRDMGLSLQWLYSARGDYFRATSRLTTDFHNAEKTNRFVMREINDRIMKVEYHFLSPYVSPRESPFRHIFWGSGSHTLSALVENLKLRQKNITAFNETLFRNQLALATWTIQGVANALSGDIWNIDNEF
T2 sequence (P15208 28-946 limits assumed): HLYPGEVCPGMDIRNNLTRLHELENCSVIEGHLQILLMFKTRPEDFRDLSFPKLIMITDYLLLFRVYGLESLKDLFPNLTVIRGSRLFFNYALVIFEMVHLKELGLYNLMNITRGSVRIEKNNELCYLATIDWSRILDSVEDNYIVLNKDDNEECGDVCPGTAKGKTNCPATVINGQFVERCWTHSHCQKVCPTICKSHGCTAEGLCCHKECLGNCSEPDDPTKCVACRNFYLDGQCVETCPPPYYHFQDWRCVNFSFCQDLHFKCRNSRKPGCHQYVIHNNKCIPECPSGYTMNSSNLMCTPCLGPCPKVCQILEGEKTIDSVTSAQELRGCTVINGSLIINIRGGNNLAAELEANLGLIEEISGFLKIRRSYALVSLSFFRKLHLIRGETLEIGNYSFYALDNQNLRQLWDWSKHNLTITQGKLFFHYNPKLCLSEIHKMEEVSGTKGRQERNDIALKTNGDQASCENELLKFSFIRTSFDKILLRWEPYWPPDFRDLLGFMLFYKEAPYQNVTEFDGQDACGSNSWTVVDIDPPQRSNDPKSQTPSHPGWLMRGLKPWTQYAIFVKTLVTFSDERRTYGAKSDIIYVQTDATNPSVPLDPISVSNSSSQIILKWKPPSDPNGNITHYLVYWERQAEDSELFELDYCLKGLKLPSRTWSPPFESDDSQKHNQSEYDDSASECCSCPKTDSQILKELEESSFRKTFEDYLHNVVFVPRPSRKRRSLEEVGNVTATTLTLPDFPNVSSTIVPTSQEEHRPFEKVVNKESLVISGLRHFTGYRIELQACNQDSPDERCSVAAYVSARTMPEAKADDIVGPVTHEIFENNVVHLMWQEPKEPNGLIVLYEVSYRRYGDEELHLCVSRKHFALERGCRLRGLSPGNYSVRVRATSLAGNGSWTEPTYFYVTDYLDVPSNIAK

Binder | binding result [1] | binding result [2] | binding result [3]
B1 | no binding (tested: 2 µM receptor ectodomain, 200 nM VLR-Fc) | no binding (tested: 2 µM receptor ectodomain, 200 nM VLR-Fc) | no binding (tested: 2 µM receptor ectodomain, 200 nM VLR-Fc)
B2 | no binding (tested: 2 µM receptor ectodomain, 200 nM VLR-Fc) | no binding (tested: 2 µM receptor ectodomain, 200 nM VLR-Fc) | no binding (tested: 2 µM receptor ectodomain, 200 nM VLR-Fc)
B3 | no binding (tested: 2 µM receptor ectodomain, 200 nM VLR-Fc) | no binding (tested: 2 µM receptor ectodomain, 200 nM VLR-Fc) | no binding (tested: 2 µM receptor ectodomain, 200 nM VLR-Fc)
